We go through 5 molecules from patent US20130022590, “Compositions Comprising Zinc Finger Domains and Uses Therefor” (published 2013).

The target in series [1] is T1, ZRANB2-F12 (Homo sapiens, UniProt O95218 O95218:1-95). As to the kind of experiment: FP; higher affinity than shorter spacings; value in figure only. Particulars: tags: GST removed for FA, gel shift and SPR; label: 5'-fluorescein. The protocol: (§1) Fluorescence Anisotropy titrations e.g., as shown in FIGS. 1D-F, 8 and 35, were carried out using standard protocols. In brief, 5′-Fluorescein-labeled RNA oligonucleotides were quantified by A₂₆₀, correcting for fluorescein absorbance by using A₄₉₃. For single-site experiments, the sequence […] (SEQ ID NO: 28), or single base mutants thereof, was used. For double-site experiments, two AGGUAA sites were separated by different length sequences as indicated, and the total oligonucleotide lengths were kept constant by the symmetrical addition of adenines to each end. […] Protein was titrated into this starting solution and anisotropy values measured on a Cary Eclipse fluorescence spectrophotometer fitted with manual polarizer and long-pass filters set to 475 and 515 nm for excitation and emission, respectively. […] Association constants were determined by nonlinear least squares regression analysis using a 1:1 binding model.
The importance of the spacing between AGGUAA motifs was assessed by measuring binding of F12 to double sites that were separated by −1 to 8 nt (where −1 denotes the sequence […] SEQ ID NO: 33; FIG. 1E, lanes 5-10).

The target in series [2] is T1, ZRANB2-F12. In words: 15N-HSQC titration. Particulars: tags: GST removed for FA, gel shift and SPR; label: 5'-fluorescein. The method, then:
In brief, F2 and F12 were dialysed into 25 mM potassium phosphate (pH 7.0), 25 mM NaCl, and 0.5 mM DTT and concentrated to 0.4-1 mM. All spectra were recorded on a Bruker Avance 600 spectrometer equipped with a cryoprobe. 1H, 15N, and 13C assignments were obtained from HNCACB, CB-CA(CO)NH, HCCH-TOCSY, NOESY, and TOCSY spectra acquired at 2° C., 5° C., or 25° C. Dihedral angle restraints were obtained by analysis of an HNHA spectrum as previously described in Vuister G. W. and Bax A. 1993 J Am Chem Soc 115: 7772-7777. NMR data were processed by using XWINNMR/Topspin (Bruker) and analyzed with SPARKY (T. D. Goddard and D. G. Kneller, University of California, San Francisco). The structure of F2 was calculated from NOE and Ø angle constraints (e.g., FIGS. 5 and 9C) by using a protocol as described in Plambeck C. A., et al., 2003 J Biol Chem 278: 22805-22811.
¹⁵N-HSQC titrations were also carried out by using the double finger construct (F12; residues 1-95) and the double site oligonucleotide. AGGUAAAGGUAA (SEQ ID NO: 26). […] This titration (FIG. 9D) gave rise to the same pattern of chemical-shift changes as the two single-finger experiments. Only 3-4 new signals appeared, most likely from linker residues.

Series [3] addresses T1, ZRANB2-F12. As to the kind of experiment: SPR; immobilised RNA; 750 nM F12; 10 mM phosphate pH 7.2, 50 mM NaCl, 25 C. Particulars: tags: GST removed for FA, gel shift and SPR; label: 5'-biotin. The method, then: Competition binding experiments were carried out by flowing a solution of F12 over a streptavidin chip coated with a biotinylated ssRNA oligonucleotide (containing the sequence AGGUAA) in the presence of an unlabeled competitor oligonucleotide.
Binding experiments were performed in triplicate at 25° C. on a BIACORE 3000 (Biacore). A 5′ biotin-labeled RNA oligonucleotide containing the 5′ splice site from exon 3 of the Tra2β minigene ([…]; SEQ ID NO: 29) was purified by size exclusion chromatography (Superdex 75), and unlabeled competitor oligonucleotides i.e., […] from exon 1 (SEQ ID NO: 30), […] from exon 2 (SEQ ID NO: 31), and […] from exon 3 (SEQ ID NO: 32) were used without further purification. Protein and RNA samples were dialysed into 10 mM sodium phosphate (pH 7.2), 50 mM NaCl, 1 mM DTT, and 0.005% NP20 and filtered. The biotinylated RNA was heated to 65° C. for 5 min, cooled on ice, and then immobilized onto a streptavidin-coated sensor chip to a total of approximately 160 relative units. Solutions of 750 nM F12 in the presence of 1 molar equivalent of each competitor RNA were injected in random order over the sensor chip (at a flow rate of 20 μL/min for 120 sec) and allowed to undergo a 120-sec dissociation time; a further 300-sec interval was allowed between injections. Data were analyzed by using BIA Evaluation software (Biacore).
A general note: Surface plasmon resonance follows binding to a sensor surface in real time, without labels.

Series [4] concerns the target T1, ZRANB2-F12. In words: EMSA; interaction abrogated. The conditions noted are these: tags: GST removed for FA, gel shift and SPR; label: 32P. The method, then:
Gel Shift assays e.g., FIGS. 1B, 32A, were carried out using standard protocols. In brief, oligonucleotides were 5′ end-labelled with T4 polynucleotide kinase and annealed. Binding reactions were set up in a volume of 30 μL and contained a constant concentration of ³²P-labeled probe (0.1 pmol) and increasing concentrations of F12, in a buffer consisting of 10 mM Mops (pH 7.2), 50 mM KCl, 5 mM MgCl₂, 1 mM DTT, 0.03 mg/mL heparin, and 5% glycerol. Binding reactions were set up on ice and incubated at 4° C. for 30 min, after which time 15 μL of each sample was loaded onto a prerun 8% native polyacrylamide gel made up in 0.5× Tris-borate buffer, and electrophoresed (250V, 1 h, 4° C.). The oligonucleotide sequence used for gel shift experiments was […] (SEQ ID NO: 28); the site was mutated by changing the central GGU to CUG.
To determine whether the AGGUAA motif was sufficient for binding, the binding of the double finger construct F12 to a 17-nt RNA oligonucleotide containing a single AGGUAA motif was tested as described in Section 1.4 above with dsDNA, ssDNA, and dsRNA also tested as controls. […] Mutation of the central GGU, which is the most highly-conserved element in the SELEX consensus to CUG, abrogated the interaction, showing that the interaction is sequence specific (FIG. 1B).
For orientation: Mobility shift assays separate free from complexed probe on a gel.

Another series has as its target T2, ZRANB2-F2 R82Q (Homo sapiens, UniProt O95218 O95218:65-95, R82Q).
T2 chain: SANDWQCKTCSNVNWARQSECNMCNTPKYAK
In words: FP; no preference between G and A at position 3. Particulars: label: 5'-fluorescein. The method, then:
as §1
To determine whether changing arginine-82 (R82) would affect the binding preference of ZRANB2-F2 from GGU to GAU, the point mutation R82Q in ZNF 2 of ZRANB2 was made and the ability of both the wild type (W) protein and the R82Q mutant to bind to AGGUAA and AGAUAA was assessed by fluorescence anisotropy binding assays as described previously in Example 1.

B1: double site spacing 5 (penta-adenine) (ssRNA)
RNA: AGGUAAAAAAAAGGUAA
modifications: [none]
For the molecule B1, in the series with ZRANB2-F12 [1], the binding result is “binds”.

B2: double site AGGUAAAGGUAA (ssRNA)
RNA: AGGUAAAGGUAA
For the molecule B2, the binding result with ZRANB2-F12 [2] was “binds”.

B3: Tra2-beta exon 3 5' splice site (ssRNA)
RNA: CUCUGAAUCUAGGUAAGAAAG
Turning to B3, in the series with ZRANB2-F12 [3], the binding result is reported as “binds”.

B4: 17-nt CUG mutant ssRNA (ssRNA)
RNA: GCAACCACUGAAAGUCU
modifications: [none]
Consider B4, for which the binding result with ZRANB2-F12 [4] is on record as “no binding”.

B5: AGAUAA (3A) (ssRNA)
RNA: AGAUAA
Turning to B5, the binding signal in the series with ZRANB2-F2 R82Q was ~2 fold higher than WT F2 on same RNA.
